Among the data in CN106892979A are 中和100×TCID50病毒需要的抗体量 values, retold here.

What all share (assay): cell-based or functional assay
The target in experiment [1] is H7N9病毒Suzhou-03病毒株 (H7N9病毒).
Experiment [2] has as its target H7N9病毒Wuxi-02病毒株 (H7N9病毒).
Experiment [3] concerns the target H7N9病毒Wuxi-01病毒株 (H7N9病毒).
Experiment [4] deals with H7N9病毒Nanjing-06病毒株 (H7N9病毒).

B1: 全人源抗H7N9病毒的单克隆中和抗体mAb635 (antibody, V domains shown)
VH: TGVHSQVQLVQSGAEVKKPGASVKISCKASGYSFTNYTLHWVRQAPGQRLEWMGWINAGNGNTRYSQKFQARVTITRDTSASTGYMEVSSLRSEDTAVYYCARGAYYGFWNGHYMGDDDNYYYGMGVWGQGPRSPSPQRR
VL: TGSLSQPVLTQPPSVSVSPGQTASITCSGDKLGDKYACWYQQKPGQSPVQVIYQDTKRPSGIPERFSGSNSGDTATLTISGTQSVDEADYYCQAWDSSRDVVFGGGTKLTVLGQPKAAPSVTLFPTLE
B1: the 中和100×TCID50病毒需要的抗体量 is 80 ng in experiment [1], 320 ng in experiment [2], 160 ng in experiment [3] and 80 ng in experiment [4].
